Assay: label from the status in PepcDB records
For “MASNMDREMILADFQACTGIENIDEAITLLEQNNWDLVAAINGVIPQENGILQSEYGGETIPGPAFN”, the protein production was “failed”.
With “MASNRCAVCKILNETCAPMCIYAPHFPSNDASFKVIIQIFGAVNVCNILDNLEFPEQREIAANCLRYAAEARIRNPISGCHDMILQYKNILNNVEQDIESAVNELGTYVGHDQVPKFYDLPMPDDFLMTPVSLDSFIAKIKSLNEVQKNQLMQLPTAADNAPMIMNSIFGKMEDKNLKDGHRADGASTSAGK” the protein production was “failed”.
With “MASNRGAGGSLYGGADPYRSREGLSTRNASGSEEIQLRIDPMHSDLDDEILGLHGQIAQEIGSEAKSQRDFLDELQMTLIRAQAGVKNNIRKLNLSIIRSGNNHIMHVVLFALLLFFILYMWSKMFKR” the protein production was “failed”.
In the case of “MASQIDQYAVFGNPINHSKSPFIHTLFARQTQQSMIYTAQCVPVDGFTEAAKHFFAQGGRGCNVTVPFKEEAYRFADRLTERARLAGAVNTLKKLDDGEILGDNTDGEGLVQDLLAQQVLLKGATILLIGAGGAARGVLKPLLDQQPASITVTNRTFAKAEQLAELVAAYGEVKAQAFEQLKQSYDVIINSTSASLDGELPAIDPVIFSSRSVCYDMMYGKGYTVFNQWARQHGCAQAIDGLGMLVGQAAESFMLWRGLRPGTKQILRELRKNLEGAL”, the protein production is reported as “not failed”.
With “MASQTNQTVVDTKKIETENPPKPQVPASSCRKRVKDDNATFFANLKDHMDEFIHASMDEHKTCFKNTMDKIFGSFSKAEAVAEKQIEAKEVVEIHSPLQTAVTK” the protein production was “not failed”.
For “MASRGRRPEHGGPPELFYDETEARKYVRNSRMIDIQTRMAGRALELLYLPENKPCYLLDIGCGTGLSGSYLSDEGHYWVGLDISPAMLDEAVDREIEGDLLLGDMGQGIPFKPGTFDGCISISAVQWLCNANKKSENPAKRLYCFFASLFSVLVRGSRAVLQLYPENSEQLELITTQATKAGFSGGMVVDYPNSAKAKKFYLCLFSGPSTFIPEGLSENQDEVEPRESVFTNERFPLRMSRRGMVRKSRAWVLEKKERHRRQGREVRPDTQYTGRKRKPRF”, the protein production was “failed”.
With “MASSALCFFLMSDLFEPPPDFPARSALRRDCTACGACCSAPDIHALGKPLGVPCRFLGAENTQGACLCGIYLERPAVCRSYAPDWVCGEVAPLPTLEARIRRFLEIYGLDPVTGLEHHHHHH” the protein production was “failed”.
In the case of “MASSDVLRQPDKNARPLALSGHVGFDSLPDQLVNKSTSQGFCFNILCIGETGIGKSTLMDTLFNTNFENFESSHFEPKVKLRAQTYDLQESNVRLKLTVVNTVGFGDQMNKQESYQHIVDYIDTQFESYLQEELKIKRSLHNYHDSRIHACLYFIAPSGHSLKSLDLVTMKKLDSKVNIIPVIAKADTISKSELHKFKIKIMSELVSNGVQIYQFPIDDETVAKINTAMNGHLPFAVVGSTEEVNIGNKMVKARQYPWGVVQVENENHCDFVKLREMLICVNMEDLREQTHTRHYELYRRCKLEEMGFKDTDPECKPVSLQQTYEAKRQEFLGELQRREEEMRQTFVQRVKEKEAELKDAERELQGKFEQLKRLHADEKSKLEEKRRSLEEEMSVFSKRKAATELLQAQSFNTSTNNKKDKDRKNSGFM”, the protein production is reported as “not failed”.
For “MASSEGLASVDPWSFRQNFNIDSWLLSDSFSHDSDILAKALHRSISTSTESSPLSPSSFFDSSTAAVDFSPPQTLSNVSFGSDPEIPAASALGLGKRKRGPGVSGGKQTKRRSRVSNKKSQTTFITADAANFRQMVQQVTGAKFLGSSNSIFAPIVKPEPHRLASRLPPSCGNLDRSSAVPTLDTSSFLSNHHQENIITDLGAPTGSFHHQSSAGTTTANVGGGSSAVELDSYPSFPTLESWKVM”, the protein production was “failed”.
For “MASSLTKDSVTPGTPGTEKTFFGHPRGLATLFMTEMWERFSYYGMRALLPLYLVAPGGLGLGAGTATAIYSVYLSLVYLLTMPGGWFGDRVWGPRKTVAIAGGVIMLGHLTLALPSSGTFYAGLGLVAIGSGLLKANISTMVGQLYDGPDDPRRDGGFTVFYMGINLGAFAAPLTIGTIGENVNWHLGFALAAVGMGLGVLQFLIGSRHLAPHSSAVPKPLSVEEKTSTLRKAAFWAALAVVFYAIVGFSGHYTLNWILVPLTLLGVIIPVLVLTNIKRDKSLDRAEQSKMSAYIWFFVAAAVFWMIYDQGGSTLSLFADSSADNSVFGWSFPVSWYQSVNPVIIMALAPVFATVWLALNRRGKEPSTVVKFCGGLVLVGASFFLFLAPLGIAEGGHKAAAMWLVAIYFVQTCGELMLSPVGLSVTTKMAPVKYASQMMGVWFLAVTAGDATTGLLSIAGVDLNKTGIVAAEATLAVVAGVAIWMYRKRVKELMGDVR”, the protein production was “failed”.
In the case of “MASSTLFKLNSQTFKALNPSPPSLSPPNSRIFHLHFSKSLSQQHSKLNHKSTTTRLFAPLCSSLPSPSSSSPPLSKEEAINQAKTCLLSCLIKPLNNPKLASPKLRKLKQPRFRLEIPILDDDSPSSLSQLAFSIFHDLPISRRGSNVKLLFLWPNPSFIDPAVKAFRSDSIHHIAMSPVSDSLKTALRSADVAIFMAPEKSQLEDVKTASEAFSTKPVVMINPRWLFEEEKSFGDGFIGSFEVIYAFTGLEVRGVFSKRKGVIFKCVRDGVVSGERWNVLVEEEEGNGTLKVVSQFNSRPSIEEVELVLYNLMAMNSPITKSAKFLSDLVSNITGKK”, the protein production is reported as “failed”.
In the case of “MASTDYHVDLTNCDREPIHIPGYIQPHGCLIACDNAMRMVLRHSENCGELLGLEGDLNGRTAEDVLGKKLVHDLRNALTVTGRTTRPAMLPAMETSDGRSFDISLHRYKSTTIIEFEPSGSDAQPLGTARKMVDRIREADSVESLISRTTRLVKATLGYDRVMIYRFQEDGAGKVVSEAKQPELESFLGQYFPASDIPQQARALYLKNTLRIISDASGTRIPVLPAVDVSGEPLDLSYAHLRSVSPIHCEYLRNMGVAASMSISVIVDGALWGLIACHHYSPRVLSMPVRIAAEMFGEFFSMHLQVLKQKRRLDTINHAHAALDRFLRLAAHHANIEELLVDSFQDFADLMPCDGVGLWVGNNWHGHGATPPHDAIPRLARFVASASEGRVWATHALSQAIPEAEIYAGTAAGMLAIPLSQVKSDYLLFFRKEIVQNLNWAGNPEKSYETGPMGDRLTPRKSFAIWKETVRLQAQPWSEADREIAEAARIALVEVAFHHSELMAGERERAEVRQRMLNEELNHRVKNVLAIIKSLVGNPSQEGKTLQEYVTALKGRIQALSFAHDQIIRGEGGGALRDLLEAELSPHRSPETTVKLEGPQITLDSRAFSVMALVLHELATNAAKYGALSQNGGQLHVRWDVNENRDCEISWRETLLTTLPAPSRAGFGTALISRSIPYDLGGRSTIRYLPNGLEAEILLPFRHVSSVSAAFETKTEAETLPQPRRYNREEPLKVLLVEDQMLIAMDVENMLEDNGIKAIETATSSAMAIEKLKTYLPDVAILDINLGSDTSIPVARELHRRGIPFLFATGYADGSMVPDEFGAVPVIRKPYDEDALMAGIGVLVGDTERV”, the protein production is reported as “failed”.
For “MASVNSPIRTFLKPLLFKLFGKNVYARFQFYAKIKDIDKRLVEEKEMELLPYFLNKDSNSIDVGANYAYYTVGMSKLSKKVFAYEPIPFTYKVCKMLLKHYNCANVDLFAQGVGEKNEIKRFNVPVVDFGGISAGQAHMADRNNELKGKEQHYQFSKNEAYDCTVVSLDAAITDITPISFVKMDIEGAEYFALKGMQQLLLKHKPVILIEINPFFLTGFDIKENDLKNLIASHAYKTYIYSAELKKLQAFECAYFESNYILIPEEKIAQFNAIIE”, the protein production was “failed”.
With “MASYHVSHDSYQSPGPSPLYQPIIEAPPPPYPPTRTRYQDYYGGYGQPHPPPLRPYRSDHEYYGDGEYVGCFPFLRSCLTTLCCCWFVEQCCFRSRY” the protein production was “not failed”.
For “MATAALSAARPNRLSSASSDVPLHPLYLPTKLQFPSRKTQLWRSAAILLPTRRRCAPPRASSRADDSPPFDMSVETALKVLGVSEGASFDEILRAKKSILASRKDDPNAISQAEAAYDMLLMQSLNQRRAGKVVSNNIRYADVKSSNPLGTSTVTQWMKNPPVSVDMPSTSDLGIQAGVYGAMMVLTYVNGSSFESSGMPYAGADVPGLILASSFGASLYFMTKKKVKLGKAAALTAGGLVAGAVVGSAIETWLHVDVVPFLGLHSPAAVVSEFIVFSQFLVSLCLR”, the protein production was “failed”.
In the case of “MATAEAQIGVNRNLQKQDLSNLDVSKLTPLSPEVISRQATINIGTIGHVAHGKSTVVKAISGVQTVRFKNELERNITIKLERLSEKKIKNLLTSKQQRQQYEIKQRSMLRHLAELRRHSRFRRLCTKPASSSMPASTSSVDRRTTRRSTSQTSLSPSNSSGYGSVFGCEEHDVDKIPSLNGFAKLKRRRSSCVGAPTPNSKRSKNNMGVIAKRPPKGEYVVERIECVEMDQYQPVFFVKWLGYHDSENTWESLANVADCAEMEKFVERHQQLYEIYIAKITTELEKQLEALPLMENITVAEVDAYEPLNLQIDLILLAQYRAAGSRSQREPQKIGERALKSMQIKRAQFVRRKQLADLALFEKRMNHVEKPSPPIRVENNIDLDTIDSNFMYIHDNIIGKDVPKPEAGIVGCKCTEDTEECTASTKCCARFAGELFAYERSTRRLRLRPGSAIYECNSRCSCDSSCSNRLVQHGRQVPLVLFKTANGSGWGVRAATALRKGEFVCEYIGEIITSDEANERGKAYDDNGRTYLFDLDYNTAQDSEYTIDAANYGNISHFINHSCDPNLAVFPCWIEHLNVALPHLVFFTLRPIKAGEELSFDYIRADNEDVPYENLSTAVRVECRCGADNCRKVLF”, the protein production is reported as “failed”.
For “MATAVKLSGISKTFGSLKANDNVSLSIEAGSIHALVGENGAGKSTLSNIIYGLLHPDSGTIEIDGKAVKFSSVRQAIEAGIGMVHQHFMLVPTLSVTENIILGKEESRLALPTRRIGKEIRQLSQQHGLEVDPDALVSTLSVGEQQRVEILKLLYRRAKLLILDEPTAVLSPPETARLFATLRSLAAEGRTVLLITHKLDEVLTVSDSVSVMRKGSLVGTVPTTSTSKEDLARMMVGRDVLLRTANAPQTPGKTVLSIDKLTYRSPLGIDKLTGLTLHVRAGEIYGIAGVEGNGQSELLSLLWGTFDRSGKTGGSITIDAQETLGKNPSEIAALGVSMIPEDRHKSAIIAEYGIEENLILGRHREKAFHRGIGFDRDAVHKNATAMIEQYDIRCAAGTNPPIASLSGGNQQKIVVAREMERPQLKLLVLAQPTRGVDIGAIEQIHKRIIDARKSGLAILLISSELEEIVALSTRIGCLYKGAIRHEFSETEVWRGRDHESGFEKEIGMHITLEHHHHHH”, the protein production was “not failed”.
For “MATESSSPSSVRKVVVHLRATGGAPILKQSKFKIPGTDKFAKVIDFLRRQLHSDSLFVYVNSAFSPNPDESVIDLYNNFGFDGKLVVNYACSMAWG”, the protein production was “failed”.
With “MATHNIHMDCAVNPSVRWRSRPVSTQVPRTRRFAAVVGPIAFSTLGIVLSLFAAVAVDAQPRTPGRVAAVFPPWWDDARVVASAGTAGDIAGAGGASFIVILRGDPATLNQRARTAGAWLLLDPALAGACARPASEPVSS” the protein production was “failed”.
For “MATIAAADRTVTSVRPAELGVKVVIVMALLLIVMLIFAYKVVSLHNMKDEPFWAAYGLIITAFIFTRFGLAALYRPPRRDTGNYWPVVAIIVPAYNEPDIARTLLHCVGVDYPRELLRVVVVDDKSSDDTLRRITDFAAEHPNLTVIPHEVNGGKRRAMATGMAAADDADLFVFIDSDSQVTRDAIRVIASYFADSSVGAVCGHTDVTNISHNILTRMQAMQYYIAFRIYKSAEALFGSVTCCSGCFSAYRADAVRPVADKWLNQTFLGRPSTFGDDRSLTNYLLRDWRVLYAPDAQAYTNVPEHLKQFLRQQLRWKKSWLREAPRAMCAVRRKNPVMVVMFALSIVLPLIAPQVVMRAFVVQPHFISQLPFWYFGGVAAIAVIYGLFYRLHRPVKRWYQGIFFTMFYTIILVLQMPYAMVTIRDSKWGTR”, the protein production was “failed”.
For “MATIEKRGSSYRARVTIYQHGKRDYLTKTFKTENEAKVWGTTLELEKAKGKAIAHQNTLFKDFYYLYVHTIKVNDVRKATFNNYLKAGLVINNLFPTAKLGKLDDVQMQKILDKYGETHSKKTVVELLKKIRTALRYAYAKGYIYNDFASLLKAHGKELPKRNKALSMSDLTKLKHYLLEHTDDEFNLMVLLEISTGLRRGEILGIKPEDVHYDGQYYCVEVRRSISPTTDDTKLKTKHSRRSVTIPKDVYDLLKTIPSKASGYLFDWFSFKQSELLKKLLKKIGIPSTTFHGLRDTHASFLFSNNIPLSYVSRRLGHDSILTTEKYYLELMPEKKHSQDANALNLLASL”, the protein production was “failed”.

Reference: a protein production outcome set (Wang et al. 2014)
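Also: failed if final PepcDB status was selected cloned or expressed and not failed if soluble or beyond.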
